# From paper PMC4902875 (ACS chemical biology, 2016)
# Biological target: the molecule itself
# Assay: crystal structure
protein,measurement,value
"BexE (enzyme, Amycolotopsis orientalis sp. vinerea, UniProt D7RFJ3 1-487, looked up) MDAPVVIAGAGPAGLMLAGELRLAGIGVVVLERLPARTGESRGLGFTARTMEVFDQRGLLRRFGEVQTSDQGHFGGIPVDFGLLDGAHQAAKTIPQSATEAVLEAWAGELGADIRRGHELTGVRDDGDGVAVTVRGPAGEHVLRAGWLVGCDGGRSAVRKAVGFDFPGTAATREMFLADLRGVELEPRMIGESLPGGMVMVGPLPGGVTRIIVCERDAPPRRRTGPPPFHEVADAWKRITGIDISAAEPVWLSAFGDATRQVTEYRRGRVLLAGDAAHVHLPAGGQGMNAGIQDAVNLGWKLAAVVRGTARADLLDTYHGERHPVGVRLLMNTRAQGLLFLNGAEMQPLRDVLAELTGYPDVARHLAAMVSGLEIAYDVGGGSHPWLGRRLPRLELDRGGRPSSTAELLRPARGLLLDFAGNAALRDRAAPWAGRIDVVTARPAAGRVPGATTAVLVRPDGHVAWAAPGTHADLPMALERWFGPAPR",binding result,binds
